Here are results for twelve molecules from US20170240595 (published 2017).

Bridges are numbered along the chain shown (N, C = ends). Where no end group is shown, it is not given here. [ ]: non-standard residue; d: D form. Bip = N[C@@H](Cc1ccc(-c2ccccc2)cc1)C(=O)O; 2Nal = N[C@@H](Cc1ccc2ccccc2c1)C(=O)O; d2Nal = N[C@H](Cc1ccc2ccccc2c1)C(=O)O; hArg = N=C(N)NCCCC[C@H](N)C(=O)O; 3Pal = N[C@@H](Cc1cccnc1)C(=O)O; Pen = CC(C)(S)[C@H](N)C(=O)O; Nle = CCCC[C@H](N)C(=O)O; Bal = not defined here; GABA = NCCCC(=O)O; βAla = NCCC(=O)O

First the molecules themselves.
B1: Ac-Nle-c(Asp-D-Ala-His-D-Phe-Arg-Trp-Lys)-NH2 (peptide)
chain: Ac-[Nle]D[dA]H[dF]RWK-NH2
modifications: lactam 2-8
SMILES: CCCC[C@H](NC(C)=O)C(=O)N[C@H]1CC(=O)NCCCC[C@@H](C(N)=O)NC(=O)[C@H](Cc2c[nH]c3ccccc23)NC(=O)[C@H](CCCNC(=N)N)NC(=O)[C@@H](Cc2ccccc2)NC(=O)[C@H](Cc2c[nH]cn2)NC(=O)[C@@H](C)NC1=O
B2: Ac-Nle-c(Cys-D-Ala-His-D-Phe-Arg-Trp-Gly-Cys)-NH2 (peptide)
chain: Ac-[Nle]C[dA]H[dF]RWGC-NH2
modifications: disulfide 2-9
SMILES: CCCC[C@H](NC(C)=O)C(=O)N[C@H]1CSSC[C@@H](C(N)=O)NC(=O)CNC(=O)[C@H](Cc2c[nH]c3ccccc23)NC(=O)[C@H](CCCNC(=N)N)NC(=O)[C@@H](Cc2ccccc2)NC(=O)[C@H](Cc2c[nH]cn2)NC(=O)[C@@H](C)NC1=O
B3: Ac-D-Arg-c(Cys-His-D-Phe-Arg-Trp-Gaba-Pen)-NH2 (peptide)
chain: Ac-[dR]CH[dF]RW[GABA][Pen]-NH2
modifications: disulfide 2-8
SMILES: CC(=O)N[C@H](CCCNC(=N)N)C(=O)N[C@H]1CSSC(C)(C)[C@@H](C(N)=O)NC(=O)CCCNC(=O)[C@H](Cc2c[nH]c3ccccc23)NC(=O)[C@H](CCCNC(=N)N)NC(=O)[C@@H](Cc2ccccc2)NC(=O)[C@H](Cc2c[nH]cn2)NC1=O
B4: Ac-Arg-c(Cys-His-D-Phe-Arg-Trp-Gaba-Pen)-NH2 (peptide)
chain: Ac-RCH[dF]RW[GABA][Pen]-NH2
modifications: disulfide 2-8
SMILES: CC(=O)N[C@@H](CCCNC(=N)N)C(=O)N[C@H]1CSSC(C)(C)[C@@H](C(N)=O)NC(=O)CCCNC(=O)[C@H](Cc2c[nH]c3ccccc23)NC(=O)[C@H](CCCNC(=N)N)NC(=O)[C@@H](Cc2ccccc2)NC(=O)[C@H](Cc2c[nH]cn2)NC1=O

T4 sequence (Q01726 whole entry): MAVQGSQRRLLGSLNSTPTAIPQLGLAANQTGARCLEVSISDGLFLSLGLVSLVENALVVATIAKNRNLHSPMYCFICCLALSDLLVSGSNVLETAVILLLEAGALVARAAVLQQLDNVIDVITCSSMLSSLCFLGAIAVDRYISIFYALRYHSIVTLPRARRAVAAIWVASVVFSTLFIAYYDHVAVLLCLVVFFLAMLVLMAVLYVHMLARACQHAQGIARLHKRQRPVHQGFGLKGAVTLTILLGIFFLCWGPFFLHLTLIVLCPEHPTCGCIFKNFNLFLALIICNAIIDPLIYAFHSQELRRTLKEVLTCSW

In one test the target is T1, hMC4-R (human, UniProt P32245). The test can be described thus: competition.
T1 sequence (P32245 whole entry): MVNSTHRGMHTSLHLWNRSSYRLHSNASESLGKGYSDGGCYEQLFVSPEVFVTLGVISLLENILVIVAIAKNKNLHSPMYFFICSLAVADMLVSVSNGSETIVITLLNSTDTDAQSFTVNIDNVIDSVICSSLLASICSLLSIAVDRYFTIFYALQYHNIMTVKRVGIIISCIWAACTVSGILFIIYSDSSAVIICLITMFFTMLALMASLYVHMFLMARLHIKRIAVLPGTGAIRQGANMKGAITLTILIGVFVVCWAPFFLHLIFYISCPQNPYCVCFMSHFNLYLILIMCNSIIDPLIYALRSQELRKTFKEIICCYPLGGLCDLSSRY
With [dF]CH[d(Et)Tyr][hArg]W[βAla][dC]T-NH2 (disulfide 2-8 (inferred)) [D-Phe-c(Cys-His-D-(Et)Tyr-hArg-Trp-β-Ala-D-Cys)-Thr-NH2], affinity was put at a Ki of 14.7 nM.
Still for that read-out and setting: the value for B1 was 2.55 nM; that for Ac-[Nle]D[dA]H[dF]R[Bal]AK-NH2 (lactam 2-9; reading uncertain) [Ac-Nle-c(Asp-D-Ala-His-D-Phe-Arg-Bal-Ala-Lys)-NH2] was 21.3 nM.
The molecule Ac-[Nle]D[dA]H[dF]R[Bal]K-NH2 (lactam 2-8; reading uncertain) [Ac-Nle-c(Asp-D-Ala-His-D-Phe-Arg-Bal-Lys)-NH2] registered a Ki of 50.6 nM.
Turning to [dF]CH[dF]R[Bip][βAla][dC]T-NH2 (disulfide 2-8 (inferred)) [D-Phe-c(Cys-His-D-Phe-Arg-Bip-β-Ala-D-Cys)-Thr-NH2], the Ki was 583 nM.
Same read-out and setting: as for B2, the figure is 3.01 nM.

For another test, the target named is T2, hMC5-R (human, UniProt P33032). The test is described as follows: competition.
T2 sequence (P33032 whole entry): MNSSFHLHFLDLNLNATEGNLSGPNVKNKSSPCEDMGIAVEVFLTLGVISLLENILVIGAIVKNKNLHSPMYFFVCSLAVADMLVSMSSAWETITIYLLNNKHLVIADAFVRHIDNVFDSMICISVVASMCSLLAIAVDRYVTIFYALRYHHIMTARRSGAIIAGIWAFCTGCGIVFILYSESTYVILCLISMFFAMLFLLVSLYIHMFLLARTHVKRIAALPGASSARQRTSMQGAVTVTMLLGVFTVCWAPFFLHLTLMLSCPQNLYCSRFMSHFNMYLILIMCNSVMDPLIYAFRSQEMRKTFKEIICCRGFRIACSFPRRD
Regarding Ac-[Nle]C[3Pal][dF]RW[GABA]C-NH2 (disulfide 2-8) [Ac-Nle-c(Cys-3-Pal-D-Phe-Arg-Trp-Gaba-Cys)-NH2], affinity was put at a Ki of 92.6 nM.
Same read-out and setting: the value for B1 was 4.19 nM.
Still for that read-out and setting: the value for Ac-[Nle]D[dA]H[dF]R[Bal]AK-NH2 (lactam 2-9; reading uncertain) [Ac-Nle-c(Asp-D-Ala-His-D-Phe-Arg-Bal-Ala-Lys)-NH2] was 11.1 nM.
On the same count and under the same terms, the value for Ac-C[dA]H[dF]R[2Nal]AC-NH2 (disulfide 1-8 (inferred)) [Ac-c(Cys-D-Ala-His-D-Phe-Arg-2-Nal-Ala-Cys)-NH2] was 8810 nM; that for Ac-[Nle]D[dA]H[dF]R[Bal]K-NH2 (lactam 2-8; reading uncertain) [Ac-Nle-c(Asp-D-Ala-His-D-Phe-Arg-Bal-Lys)-NH2] was 4300 nM.
[dF]CH[dF]R[Bip][βAla][dC]T-NH2 (disulfide 2-8 (inferred)) [D-Phe-c(Cys-His-D-Phe-Arg-Bip-β-Ala-D-Cys)-Thr-NH2] registered an inhibition constant (Ki) of 1130 nM.
On the same count and under the same terms, as for B2, the figure is 339 nM; as for CEHXRXAC (cyclic, D-residues) [Ac-c(Cys-Glu-His-D-Phe-Arg-2-Nal-Ala-Cys)-NH2], 1460 nM.

In a further test the target is T3, hMC3-R (human, UniProt P41968). The test is described as follows: competition.
T3 sequence (P41968 whole entry): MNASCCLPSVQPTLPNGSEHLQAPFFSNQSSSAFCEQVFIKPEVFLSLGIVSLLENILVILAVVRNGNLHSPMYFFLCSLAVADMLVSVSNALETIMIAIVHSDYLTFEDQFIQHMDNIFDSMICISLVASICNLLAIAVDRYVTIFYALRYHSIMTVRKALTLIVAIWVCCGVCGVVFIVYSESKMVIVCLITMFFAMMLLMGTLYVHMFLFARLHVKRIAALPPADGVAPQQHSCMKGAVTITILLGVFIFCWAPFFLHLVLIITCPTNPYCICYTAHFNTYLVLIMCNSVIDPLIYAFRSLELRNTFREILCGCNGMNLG
In turn, B3 had a Ki of 172 nM.
On the same count and under the same terms, as for B4, the figure is 20.5 nM.

The target of the next test is T1, hMC4-R. The test can be described thus: competition. This is another data set of the same source.
In the case of B3, the inhibition constant Ki was 11 nM.
Turning to B4, the inhibition constant Ki was 4.57 nM.

Another test addresses T4, hMC1-R (human, UniProt Q01726). The test is described as follows: competition.
For B3, affinity was put at a Ki of 3.93 nM.
B4 yielded an inhibition constant Ki of 1.81 nM.

The target of another test is T2, hMC5-R. The test is described as follows: competition. This is another data set of the same source.
B3 had an inhibitory constant (Ki) of 538 nM.
The same measure, in the same setting: as for B4, the figure is 502 nM.

Another test concerns the target T4, hMC1-R. The test can be described thus: competition. The source holds these as a separate data set.
In turn, Ac-[Nle]C[3Pal][dF]RW[GABA]C-NH2 (disulfide 2-8) [Ac-Nle-c(Cys-3-Pal-D-Phe-Arg-Trp-Gaba-Cys)-NH2] registered a Ki of 21.1 nM.
The molecule Ac-[Nle]DH[d2Nal]RWAK-NH2 (lactam 2-8) [Ac-Nle-c(Asp-His-D-2-Nal-Arg-Trp-Ala-Lys)-NH2] registered a Ki of 1.17 nM.
Regarding B1, the affinity, expressed as Ki, was 0.659 nM.
On the same count and under the same terms, the value for Ac-[Nle]D[dA]H[dF]R[Bal]AK-NH2 (lactam 2-9; reading uncertain) [Ac-Nle-c(Asp-D-Ala-His-D-Phe-Arg-Bal-Ala-Lys)-NH2] was 4.89 nM; that for Ac-C[dA]H[dF]R[2Nal]AC-NH2 (disulfide 1-8 (inferred)) [Ac-c(Cys-D-Ala-His-D-Phe-Arg-2-Nal-Ala-Cys)-NH2] was 132 nM.
Same read-out and setting: as for Ac-[Nle]D[dA]H[dF]R[Bal]K-NH2 (lactam 2-8; reading uncertain) [Ac-Nle-c(Asp-D-Ala-His-D-Phe-Arg-Bal-Lys)-NH2], the figure is 4.12 nM; as for [dF]CH[dF]R[Bip][βAla][dC]T-NH2 (disulfide 2-8 (inferred)) [D-Phe-c(Cys-His-D-Phe-Arg-Bip-β-Ala-D-Cys)-Thr-NH2], 5.8 nM.
Same read-out and setting: as for CEHXRXAC (cyclic, D-residues) [Ac-c(Cys-Glu-His-D-Phe-Arg-2-Nal-Ala-Cys)-NH2], the figure is 262 nM.

Another test addresses T3, hMC3-R. The test is described as follows: competition. The source holds these as a separate data set.
With Ac-[Nle]C[3Pal][dF]RW[GABA]C-NH2 (disulfide 2-8) [Ac-Nle-c(Cys-3-Pal-D-Phe-Arg-Trp-Gaba-Cys)-NH2], the Ki came out at 151 nM.
For B1, affinity was put at a Ki of 98.9 nM.
Still for that read-out and setting: as for Ac-C[dA]H[dF]R[2Nal]AC-NH2 (disulfide 1-8 (inferred)) [Ac-c(Cys-D-Ala-His-D-Phe-Arg-2-Nal-Ala-Cys)-NH2], the figure is 4560 nM; as for Ac-[Nle]D[dA]H[dF]R[Bal]K-NH2 (lactam 2-8; reading uncertain) [Ac-Nle-c(Asp-D-Ala-His-D-Phe-Arg-Bal-Lys)-NH2], 445 nM.
[dF]CH[dF]R[Bip][βAla][dC]T-NH2 (disulfide 2-8 (inferred)) [D-Phe-c(Cys-His-D-Phe-Arg-Bip-β-Ala-D-Cys)-Thr-NH2] had a Ki of 3370 nM.
Same read-out and setting: the value for B2 was 149 nM.

The term Ki denotes the dissociation constant of the complex between target and ligand, obtained from inhibition or displacement.
